Test results from US20240052027A1 (OBLIQUE THERAPEUTICS, published 2024).
Bridge positions count the residues as written; N and C are the ends. * marks the point of attachment. Propargyl = C#CC*

B1: 4D11-1 (antibody, V domains shown)
VH: QEQVVESGGGLVQPEGSLTLTCTASGFDFSSNAMCWVRQAPGKGLAWIGCIGTGSSGSTYYASWARGRFTISKTSSTTVTLQMTSLTAADTATYFCPRDINAYGNDGWSFNLWGPGTLVTVSS
VL: AYDMTQTPASVEVAVGGTVTIKCQASQSIVGWLSWYQQKPGQPPKLLIYRASTLASGVPSRFKGSGSGTEFTLTISDLECDDAATYYCQQGYTFNNVDNPFGGGTEVLVK
notes: Recombinant rabbit IgG with rabbit kappa light chain, made in HEK cells; Also tested as B-cell clone supernatant; also called monoclonal antibody 4D11-1
B2: 33B6-1 (antibody, V domains shown)
VH: QSLEESGGRLVTPGTPLTLTCTASGLSLSSYDMNWVRQAPGKGLEYIGFINTRGSAYYASWATGRFTISRTSTTVDLTMTSPTTEDTATYFCARDIPDWDIGHVFDLWGPGTLVTVSS
VL: AYDMTQTPASVEVTMGGAVTIKCQASQSISNELSWYQQKPGQRPRLLIYQASALASGVPSRFKGSGYGTQFTLTISDLECADAATYYCQQGYTSNNIVNAFGGGTEVVVK
notes: Recombinant rabbit IgG with rabbit kappa light chain, made in HEK cells; Also tested as B-cell clone supernatant; also called monoclonal antibody 33B6-1
B3: 27A2-1 (antibody, V domains shown)
VH: QSLEEAGGRLVTPGGSLTLTCTASGLSLSSYDMNWVRQAPGKGLEFIGFINTRGTAYYASWAKGRFTISRTSTTVDLTMTSPTTEDTATYFCARDIPDWNIGHVFDLWGPGTLVTVSS
VL: AYDMTQTPASVEVTMGGAVTINCQASQSITNELAWYQQKPGQRPRLLIYQASALASGVPSRFKGSGYGTQFTLTISDLECADAATYYCQQGYTSNNIVNAFGGGTEVVVK
notes: Recombinant rabbit IgG with rabbit kappa light chain, made in HEK cells; Also tested as B-cell clone supernatant; also called monoclonal antibody 27A2-1
B4: 69H7-1 (antibody, V domains shown)
VH: QSLEESGGRLVTPGTPLTLTCTASGLSLSRYDMNWVRQAPGKGLEYIGFINTRGSTYYATWTTGRFTISRTSTTVDLTMTSPTTEDTATYFCARDIPDWDIGHVFDLWGPGTLVTVSS
VL: AYDMTQTPASVSGAVGGTVTINCQASQSISNELSWYQQKPGQRPRLLIYQASTLASGVPSRFKGSGYGTQFTLTISDLECADAATYYCQQGYTSNNIVNAFGGGTEVVVK
notes: Recombinant rabbit IgG with rabbit kappa light chain, made in HEK cells; Also tested as B-cell clone supernatant; also called monoclonal antibody 69H7-1
B5: 24C6-1 (antibody, V domains shown)
VH: QSVEESGGRLVTPGTPLTLTCTVSGFSLSTYAMAWVRQAPGKGLEWIGIIGQSSKTYYAIWAKGRFTISRTSTTVDLKIPSPTTEDTATYFCARGSTYVLDMWGPGTLVTVSL
VL: AVVMTQTASPVSAAVGGTVTIKCQASQSISSYLAWYQQKPGQPPKLLIADASKLVSGVPSRFKGSGSGTEFTLTISDLECADAATYYCQNYYGSSDFGTFGGGTEVVVE
notes: Recombinant rabbit IgG with rabbit kappa light chain, made in HEK cells; Also tested as B-cell clone supernatant; also called monoclonal antibody 24C6-1
B6: 9E4-1 (antibody, V domains shown)
VH: QSLEESGGRLVTPGTPLTLTCTVSGIDLSSVTMGWVRQAPGKGLEYIGVIVPRGATYYANWVKGRFTISKTSTTVDLKMTSLTTEDTATYFCARDGDTGNIYGYYFDIWGPGTLVTVSL
VL: AYDMTQTPASVSEPVGGTVTIKCQASQSISTALAWYQQKSGQRPKLLIYDAWKLASGVSSRFKGSGSGTQFTLTISGVQCDDAATYYCQQGYSGNNVDNVFGGGTEVVVS
notes: Recombinant rabbit IgG with rabbit kappa light chain, made in HEK cells; Also tested as B-cell clone supernatant; also called monoclonal antibody 9E4-1
B7: 29B5-1 (antibody, V domains shown)
VH: QSLEESGGRLVTPGTPLTLTCTVSGIDLSSVTMGWVRQAPGKGLEYIGVITTIRTTYYASWVNGRFTISQTSTTVDLKMTSLTTEDTATYFCARDGDTTNTYGYYFDIWGPGTLVTVSL
VL: AVVMTQTPASVEVAVGGTVTIKCQASQSISSYLAWYQQKPGQPPKLLIYKASTLASGVPSRFKGSGSGTQFTLTISGVQCDDAATYYCQQGYTGNNVDNIFGGGTEVVVK
notes: Recombinant rabbit IgG with rabbit kappa light chain, made in HEK cells; Also tested as B-cell clone supernatant; also called monoclonal antibody 29B5-1
B8: 23B9-1 (antibody, V domains shown)
VH: QSVEESGGRPVTPGTPLTLTCTVSGIDLSRYAVDWVRQAPGKGLEWIGIILTSGKISYASWVKGRFTISKTSTTVDLKMTSLTTEDTATYFCARHFDLWGQGTLVTVSS
VL: QVLTQTASPVSAAVGGTVTINCQSSQSVYNNNNLAWYQQKPGQPPKLLIYDSSKLESGVPSRFKGSGSGTQFTLIISDLECDDAATYYCAGGYSGVIASFGGGTEVVVK
notes: Recombinant rabbit IgG with rabbit kappa light chain, made in HEK cells; Also tested as B-cell clone supernatant; also called monoclonal antibody 23B9-1
B9: 2B11-1 (antibody, V domains shown)
VH: QSVGESGGRLVTPGTPLTLTCTVSGIDLSIYPVDWVRQAPGKGLEWIGIINTNGNTYYANWAKGRFTISKTSSTTVDLQVTSLTTEDTATYFCARHFDLWGQGTLVTVSS
VL: QVLTQTASPVSAAVGGTVTINCQSSQTVYNNNNLAWYQQKSGQPPKLLIYDSSKLESGVPSRFSGSGSGTQFTLTISDLECDDAATYYCAGGYGGWIAAFGGGTEVVVK
notes: Recombinant rabbit IgG with rabbit kappa light chain, made in HEK cells; Also tested as B-cell clone supernatant; also called monoclonal antibody 2B11-1
B10: 54F1-1 (antibody, V domains shown)
VH: QSVGESGGRLVTPGTPLTLTCTVSGIDLSVYPVDWVRQAPGKGLEWIGIISTNGNTYYANWAKGRFTISKTSSTTVDLKMTSLTTEDTATYFCARHFDLWGQGTLVTVSS
VL: QVLTQTASPVSAAVGGTVTINCQSSQTVYNNNNLAWYQQKSGQPPKLLIYDSFKLESGVPSRFSGSGSGTQFTLTISDLECDDAATYYCAGGYAGWIAAFGGGTEVVVK
notes: Recombinant rabbit IgG with rabbit kappa light chain, made in HEK cells; Also tested as B-cell clone supernatant; also called monoclonal antibody 54F1-1
B11: 75C9-1 (antibody, V domains shown)
VH: QEQVVESGGGLVQPEGSLTLTCTASGFSFNNNAMCWVRQAPGKGLEWIGCIGTAASGNSYYASWAKGRFTISRTSSTTVTLQMTSLTAADTATYFCPRDINAYGNDGWSFKLWGPGTLVTVSS
VL: AFELTQTPSSVEAAVGGTVTIKCQASQSINGWLSWYQQKPGQPPKLLIYRASPVASGVPSRFKGSGSGTEYTLTISGVQCDDAATYYCQQGYTFNNVDDPFGGGTEVVVK
notes: Recombinant rabbit IgG with rabbit kappa light chain, made in HEK cells; Also tested as B-cell clone supernatant; also called monoclonal antibody 75C9-1

Legend:
[1] = target: T1, NHP-OTV16 peptide (SEQ ID NO:5) (Macaca mulatta, disulfide 1-18); test: peptide ELISA of B-cell clone supernatant
T1 construct: cyclic
T1 peptide: Propargyl-CYRPVDGLPPFKMEKTEC-NH2
Method: (§1) FIG. 5: Peptide ELISA of B-cell clone supernatants. Antibody in supernatant from B-cell clones was tested for binding to OTV16 peptide, NHP-OTV16 peptide and rOTV16 peptide respectively. B-cell supernatants were incubated for 1 hr in 96-well plates coated with the respective peptide. Plates were washed and bound antibody was detected using anti-rabbit IgG conjugated to horse radish peroxidase with absorbance measured at 450 nm. Serum from immunized rabbit was used as a positive binding control. B-cell culture medium (antibody-free) was used as a negative control. N=1.
(§2) 96-well plates suitable for ELISA were coated with respective peptide (1 μg/mL) in PBS and incubated 1 h at 37° C. or overnight at 4° C. The peptides used to coat the plates were OTV16 (SEQ ID NO:3), NHP-OTV16 (SEQ ID NO:5), and rOTV16 (SEQ ID NO:7) (described below). Plates were washed with wash buffer and incubated 1 h at 37° C. in the presence of blocking buffer (PBS, 0.5% BSA, 0.05% Tween 20, pH 7.4). B-cell supernatants were added and incubated for 1 h at 37° C. Plates were washed with wash buffer and Mouse Anti-Rabbit IgG Fc Antibody conjugated to horseradish peroxidase (Genscript, cat #A01856) was added and incubated for 30 minutes, 37° C. Plates were washed with wash buffer followed by addition of substrate solution, 100 μl/well and incubated for 13-20 minutes at RT. Reaction was stopped by adding 100 μl/well of stop solution. Absorbance was measured at 450 nm. Serum from immunized rabbit known to contain antibody that binds to OTV16 peptide was used as a positive control. B-cell culture medium (antibody-free) was used as a negative control.

[2] = target: T2, OTV16 peptide (SEQ ID NO:3) (human, disulfide 1-18; SMILES …); test: peptide ELISA of purified recombinant monoclonal antibody
T2 construct: cyclic; Coated on ELISA plates
T2 peptide: Propargyl-CYRPVDGLPPFKMEKTGC-NH2
Method: (§3) FIG. 6: Peptide ELISA of purified recombinant monoclonal antibodies. Monoclonal antibodies were tested for binding to OTV16 peptide, NHP-OTV16 peptide, mOTV16 peptide and rOTV16 peptide. Non-specific binding was determined using wells coated with bovine serum albumin (BSA). Serum from immunized rabbit (known to contain OTV16-binding antibody) was used as a positive binding control. Serial dilutions of antibody were incubated for 1 hr in ELISA plates coated with peptide or BSA. Plates were washed, and bound antibody was detected using anti-rabbit IgG conjugated to […] with absorbance measured at 405 nm.
(§4) 96-well plates suitable for ELISA were coated with peptide (1 μg/mL) in PBS and incubated 1 h at 37° C. The peptides used to coat the plates were OTV16 (SEQ ID NO:3; described above), NHP-OTV16 (SEQ ID NO:5; described above), rOTV16 (SEQ ID NO:7; described above) and mOTV16 (SEQ ID NO:9; described below). Plates were washed with PBS containing 0.05% Tween and incubated 1 h at 37° C. in the presence of blocking buffer (PBS, 0.5% BSA, 0.05% Tween 20, pH 7.4). A serial dilution of recombinant antibodies of the invention (23B9-1 or 24C6-1 or 27A2-1 or 29B5-1 or 2B₁₁-1 or 33B6-1 or 4D11-1 or 54F1-1 or 69H7-1 or 75C9-1 or 9E4-1) was added in blocking buffer and incubated for 1 h at RT. Plates were washed with PBS containing 0.05% Tween and a secondary antibody (anti-rabbit IgG conjugated to Alkaline Phosphatase (DAKO)), was added and incubated for 1 h at RT. Plates were washed with PBS containing 0.05% Tween followed by addition of 1 mg/mL pNPP (p-nitrophenyl […] phosphate) in pNPP buffer. Absorbance was measured at 405 nm. Serum from rabbit immunized with OTV16 peptide was used as a positive control. Non-specific binding, e.g. to plastic, was determined using wells coated with bovine serum albumin (BSA) protein.

[3] = target: T2, OTV16 peptide (SEQ ID NO:3); test: peptide ELISA of B-cell clone supernatant
Method: as §1, §2

[4] = target: T3, mOTV16 peptide (SEQ ID NO:9) (mouse, disulfide 1-19); test: peptide ELISA of purified recombinant monoclonal antibody
T3 construct: cyclic
T3 peptide: Propargyl-CYRPVEGLPPYKLNNTVGC-NH2
Method: as §3, §4

[5] = target: T4, rOTV16 peptide (SEQ ID NO:7) (rat, disulfide 1-18); test: peptide ELISA of B-cell clone supernatant
T4 construct: cyclic
T4 peptide: Propargyl-CYRPVEGLPPYKLKNTGC-NH2
Method: as §1, §2

Binder	binding result [1]	binding result [2]	binding result [3]	binding result [4]	binding result [5]
B1	binds	binds	–	–	–
B2	binds	binds	–	–	–
B3	binds	binds	–	–	–
B4	binds	–	binds	–	–
B5	binds	binds	–	–	–
B6	binds	–	binds	binds	–
B7	binds	binds	–	–	–
B8	binds	–	binds	binds	–
B9	binds	binds	–	binds	binds
B10	binds	binds	–	binds	binds
B11	binds	–	binds	–	–
